Test: soluble fraction after stress (log2 fold change); higher = more stays soluble; pooled small domains, quantitative proteomics
Conditions: stress: 75 degC
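Note: 20 min heating vs room temperature control held 20 min.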

Sequence	soluble fraction (log2)
HMEVDDEAIYQGHEPSIRLHRLLKDVGYNSALLPSVVTQIFKDFPGIELAKALPIAMQLLNED	-0.617
HMEVFGDTKEEQMIIDILKLGITDLEHLQAKSMLEPAIFSQTLTMLEISGKIRPLGAGHWTL	-2.87
HMEVFTPSEANVAEAREILAAMATAKANGEGATVYKGRLVDIASIKQAEVIVRQSEMIQSAH	0.696
HMEVIDQLFKIALTLFDIDKGENNSISQDLVDKVIEQMKTTAPTFIKRELSEDEVKKLRFEIQNHFNV	-0.482
HMEVKSGFVHLTGAVKSPGVYPISIGMRLFEVIALAGGFTAKADRESVNLARTVTDGEQIIVSGSG	-3.72
HMEVLEGFIEDIKFKSEESGYTVAKLNNRNKSIVIVGTMPFISEGQHVKLTGEWKIHQKFGAQFNVKELEE	-0.923
HMEVMYFIYQQEEPMRIDKFLVNEMEDFSRNSIQIYIKDNHVLVNDKVVKANYILKKGDAISITIPDPI	-1.14
HMEVNMEEKMEFVHSYIKTHKTFLFRQLLSESKSRTQVIVTFLVILELIKGGKISVTQENRTDDILINSL	0.0528
HMEVPDTIIRLRELVAAMPEQWQKVYRLVFMEGLSKAKAGKKIGISDVRVGQLVKKINAAIAGDETLK	-1.01
HMEVPMELPRQLRANRERLGLSQEDVAHAIYVSRQTMSSWERGKTYPDVQSLMLLSHLFGISIDELVKGDV	-1.57
HMEVPVQYIKFKIPENHFWAKKKVADIILPPETLLVLLQRGSDKMIPDGETVLLPEDTLVLIAKAPG	-0.479
HMEVSVPDFTGMSKSDAQNAAKEAGLTVNFEEDYDNQVPAGQVIRSNPSAGEKVKKNSSVTVTLSKGSN	0.128
HMEVSYSLPRFHKGKNPYVDFYQVDPRTLRMRRKKFLLRGVRDAVLLEQRAADLVALLTERLHSGWNAWDD	-2.1
HMEVTENQEKHAYQEAMDQALRFLAPRFLSRAELTRKLLQKEHDRDVIDAVIDRLEELDYVDDAR	-0.013
HMEVTLGLGSMVRLLGEPYLGSTGRVVELPDQAERFASGLTAKVAVVERHDGELIRVPVTNLLLME	-1.25
HMEVTLTLKSFGTAKVAVIKAIQSITGLGLMDAKKLVDAAPSVIKEKISPSEAEQYKKTLVDAGAEVEI	-2.31
HMEVVVPDFEKIYIRDLDKFVEGHNVRYEIVDSIYNLEKDKGTVVDQDPEPGSKVKHGRVIYLTVNAML	-0.231
HMEVVVPEDLDAALQQASRAQSFFSSLSYTHKKEYVAWINEAKRAETRAMRIQKTITMLESGQRGH	-2.35
HMEWEVHSVTVTPELSGERLDVAATALLSQFSRALVQRWIDANELTLNERPVKAKSKVRVGDLIAVKAK	-1.06
HMEWLENIKKLKKEKGLTNESLSEKSGISVGTLNKLLSGATTDPKLSTLRPLADALEVSLDELLAI	-0.0723
HMEWTDIPTHKVPNVVGKSVEEAKKKLSKFTIEYSGTGEKVVAQSPDAGEKLEEGGTVRLLL	-0.136
HMEYEETMSQIKHNLNLLPRQQRVIIEMAKFDELTPAEIAKQLGISVQTVRNQLSTGLKKLRQLL	0.0391
HMEYKKKIGELLIDGNKKLKAANIDTYILDTQLLLGKVLGKDKLYLITNKDEEVSNFKEREFYSLIEKRI	0.0872
HMEYMKQRLYDIIELFKRSFSPSFSEEEKKKLENVLQDDFLRKAYEQLSDEVFIEEKFREFDGY	-2.88
HMEYPNEIARIFNQIPELNVSAVARTLGINKSLLSSYIYGMKKPSPERTEEIKSAIRKIGQNMLAV	-0.927
HMEYQSLVLDFLEQGDFNAEKLKDYQRAFAKQNGMQTLPSKSQILQAYFQLVEEKKINKNSDFELLLRKR	-0.32

Sequence	soluble fraction (log2)
HMEYSNLGEALRRLSEIDLQIILLKYSHGFSIKEISKILDIKEVNLYKRNKRALNKLKKILAEMEVLSN	-0.34
HMEYYDDEELDRFRGVEADAYDEDAVNEFRDVLYTLQEIEVAGWLRSLQLRAINLPDELKDEAFLI	-1.48
HMEYYEDEELDRFRGRNSDQYSDAEIEEFNEILTTLRSEEVAGWIRSLQLREIALPDELKDDVILLVG	-0.903
HMEYYIMPVANLHKVVVDGKDMSNLISNNAIAVKANVIDEGQIQIKPGEIIITTPAGVSPEEAVRSP	≥ 1.04
HMFANQLLLTRFDLNYIKSDVLSRQIDVLGIPIKKLTIEANNKSIWLQGTSQSLSKVRELIGIIDIRENA	-3.38
HMFAQDKKFITYKVKEGETVQSISKALSITPYDLLKLNPDIKDNVSQDDLLIIPNKQYDPLGDI	0.378
HMFDENVKLIENEYDVSIISRGSELKVMGDVENVDKAARALRSMLAMINKGESLTEQNVRYVLTLVNEGNE	-0.735
HMFDFLELGQAIQDAREKQRITREELAEELGISARHLQSVEKEGQYPSFRLFIQLVTMFHISVDQYI	-0.0535
HMFDLATVKRVAEEAGMKFTIHPVELRAAHPNTAVLTLKSKAGRILVLKAASVGGGRIRVTEIDGVPAD	-0.335
HMFDLDIEQIANDLKHGVMPNLYGLSLQDALYLLEAKGIRVKVAGSGSVVNQSIKTGAYVGSGSVLKLEL	-1.78
HMFDLSQRQEQIIEIVRKHGPITGEKIADLLYVTRAALRPDLAILTMSGYLEAKPRVGYTYK	-1.64
HMFDMLGDQIKKYRKEKKMSQEELAIPLNVVRQTVSKWENNLSVPDAELLIRLAEVLEISVAELLGT	-0.378
HMFDTVFIVRKTSDKPLDGLRTYLNSIGDSLVIGEDDEAFKVHVHTNHPGKVLEEAITYGALQTVKIENMR	-1.07
HMFDTVTIGRKIAELRKAHNMTQFELADALGISFQAVSNWERGASMPDISKLPELAEIFGVTIDEVLGK	-1.5
HMFEATGKITGTEVSFRRKPTTDSERILFFDINTEFRVIGINNGWYKGVYQGKTGYVRSDFVEIVGG	-2.05
HMFEEPYLATYPVLIDPKLAFNVLDTMLEGLEVKMDQDEETGAISVLAPASIHTKITEYLDALSKQ	-0.0924
HMFEERKKDWNLTGLLDDVIRRYIHQLTNDELNEINLEKSSGMPDEEIKNGIKLPLAVMQQRRETWGS	-0.252
HMFEQRLRQAMKELRLKQVQVAGLTGKSRGAISQYLSGDRVPPDGVQREMAIALGLEADYFSR	-0.85
HMFERFIFTDEVYIRLKKSGLPQTTLRPLLEIHGKSFDHNEINIILSGLIPNQDFERYAQIIKSHSRF	-4.24
HMFEYDEIMEQSVPKIAWGSLLTIMKKASSHKEMLWYINETYKNGWSRSMVLNQIAMASYERSLIE	-0.732
HMFFDKIIVDFLADGSRIDKYISTLYPDISRTHIQRLIAEQFILVNDSVVKSNYKLSTNDVVLIHIPEA	-3.01
HMFFMTMGEKIQLLRKKQNWSQETLAEKLSVSRQAVSLWERDESQPELDKLLKLAKIFSVTTDYLIDDSVT	-3.19
HMFGGIEFGWSQLPDGRVEYIIQLDDQAIAALKNGRSLTSSLPPEVQNADRIRIQYGAGPVEKGLLLQ	-0.206
HMFIEMDEPEKILHRILNEANGKLELDKIGYRAEWPIGKVLTVLMSLELKGVVQSHPGKVYSL	-0.371
HMFIGFLHQLKEAGVPVSIREYLDFLSGLDKGITNLNTNSFYHFARASLVKDERHYDRFDRTFSEFFEGAL	-3
HMFIQLSQEEKKVVEGLQQRSKTHLDALALEVGQNISKTAAMLMELEMKGVVRALPGKYYEL	-1.1

Sequence	soluble fraction (log2)
HMFKEVPVPDVKGMTLEEAKLALEKEGFILGKTEEAESTEVAAGKIISQNLEAGKIAKQGTSVNLVVSKGK	0.454
HMFKLPRTIGTFEDSDVVIGAGKFGPYIMHNKKFVSLPKSEDPLTIGLERAIELISAKREQEKQRH	0.265
HMFLPFFDNLRKAGVPVSLREFLGFLEGMKAGLATYDIDAFYFLARTTMVKDERNLDKFDRAFSATFKG	-1.02
HMFNDGEIAIYTDPRGDAGETQIWKRGKGYYGQNDSFDFEAKDKKELEMKLKRWGYVLIAGSIDE	-0.435
HMFNGDPTTRESILASARAEIDQYGIIGLRLSAVAEKAQVSVPLIYKYFEDRDGLLAVVLGDW	-1.21
HMFNTWLGEIRSNTGANVRSGPDASAAIVDARPNETVVRVIGQSGNWLQIGDKQFVAQSLVAP	-0.0837
HMFPDLTGDELRIVDLLNTANDLQVNIITAKTNLPISRVTSLLFQLEMKGVVKPLAGGMYHLLG	-1.49
HMFPELDEEEQKITKLLQAQNDLPANIIAVKTALNIGTTQAKLFSLEMKGVVKPYAGGFYHLL	-2.73
HMFPNLTNEEQQVMKVLAKTNDLQINMLSVQSNLPIARLTALLFSMEMKGVVKTLAGGVYHLL	-4.27
HMFPNSFSEREKEVVDLLLQAKSNKQIAFSLGITNRTVEYHLGNIFAKLGVSSRSEAILTITNYKNQ	-2.35
HMFPQVEVQLIYSYKSDRILNKMLKEFNVVILNQVFKDDILTSFHMNYSLVNQLITKIKSYPDISYKIIN	-1.82
HMFPTLNEDEQTIVSALQKINDQPINTLSIHTALPIPRLTSLLFQLEIKGVIKQLAGGTYHVL	-2.84
HMFQLSNEAKQQVLGELKRYESKQSAVLPALYIGQKDNKGHITPEVIRELSKVMDIPESQINEVFTFYTM	-0.287
HMFQRLPFSFANRYKMVLEYQHPERPPVLYYVEPLKAAAILEVSRVIKSGFTPQAIVSDEFEKKLTEAYQR	-2.76
HMFRMTPQRMAILAEVQNAERHLTAAEIYERVRRKYPTIAYGTVYRTLHLLAKHGLIQEFPFGDNASLFDR	-0.159
HMFRPRIEPGAKGSYVLEVQKRLAKLGYEHAGFDGVYGPGTERAIMQLQRDKGLPVTGIVDMRTYEALGLF	-0.99
HMFRSTLEELKHQISGFLKANQSQEFTAQNLADGLRMTSIAEYKRVVNAMDALVRDGELTFDAGKYQYNPN	-0.234
HMFSMKDFGQRLRQLRKERGLTQGDLARLAKIDIMQVSRYERGLGLPSLETAIALARVLETSTDLLFLG	-3.52
HMFSPSDEDLELAHRQIRAFEEVEANGKSIAVVDGRIVESLHIVTARDTLEKAKAITALAEEM	0.000997
HMFSVVDKITLQEELKKLSKKEQLLIQLRYYDELNQEEIAKIFHVSQVQISRMEKKIIEKLKKQF	-3.44
HMFTDEELEHIRSALIQAGIRLSKELGLQKMSVEKLTAAVGIAKGSFYMFFGSKEDFILEVAEYTGAQ	-0.976
HMFTEEEMTKLRHELILAGIRLSRELGLQRMSVEKITSAVGIAKGSFYIFFDSKEDFILEIADHANRE	-1.1
HMFTEEQMDWLRLIKDHIVASLSILPEDLELTPFDRKGGLLGFYDAFGDEYEKILQEMNEELVA	-0.567
HMFTEIMAERNALIQAIQQNLPPQHIQSILSKKNKFRLEDLTNEELRDVWQWILNQRQAQQHQQQ	-0.0958
HMFTGELESRVFELNYVDGLVASAALAGVLTDKGSATPIASRAGGENDMLLVVDRIASYSQIEKIITQLD	0.0191

Reference: the domain aggregation screens of Martell et al. (2025)
